Where two headings read alike, the source gives them in different places.
Tests used:
VIR13 (Neurovita 1) [1] = target: VIR13 (Neurovita 1) (rabies virus); experiment: method not restated in the table; ITC per paragraph 50
VIR13 (Neurovita 1) [2] = target: VIR13 (Neurovita 1) (rabies virus)

Binder | Kd (VIR13 (Neurovita 1) [1]) [µM] | Kd (VIR13 (Neurovita 1) [2]) [nM]
PDZ domain of the human PTPN4 protein (other, domain: PDZ domain) SSPEKPTPNGGIPHDNLVLIRMKPDENGRFGFNVKGGYDQKMPVIVSRVAPGTPADLCVPRLNEGDQVVLINGRDIAEHTHDQVVLFIKASCERHSGELMLLVRPN | 560 | –
PDZ domain of the human MAST2 protein (other) MRPPIIIHRAGKKYGFTLRAIRVYMGDSDVYTVHHMVWHVEDGGPASEAGLRQGDLITHVNGEPVHGLVHTEVVELILKSGNKVAISTTPLEN | – | 1260

Reference: patent publication US20140315822A1 (INSTITUT PASTEUR, published 2014)
